The series has as its system T1, LexA2 recombinant (Leptospira interrogans serovar Copenhageni), ORF:e6531adf.
T1 sequence: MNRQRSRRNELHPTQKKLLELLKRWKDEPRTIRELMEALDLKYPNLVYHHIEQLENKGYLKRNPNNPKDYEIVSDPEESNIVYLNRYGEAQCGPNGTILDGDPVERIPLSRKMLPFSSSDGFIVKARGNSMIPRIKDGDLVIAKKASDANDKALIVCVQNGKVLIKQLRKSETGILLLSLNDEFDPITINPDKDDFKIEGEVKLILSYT
Briefly: EMSA. The following applies: Roche DIG Gel Shift Kit binding buffer (composition and pH not given), poly[d(A-T)], 1.55 fmol probe, 20 min on ice; 5% native gel, 0.5x TBE, 4 C. (In general: Mobility shift assays separate free from complexed probe on a gel.)

As to “GTTCATTTCTTCTGGATCGTTGCCTATTCATACTACTAAGTACATGATTAGGAAAATTAACTTAAAAAGCAAGAAAAAAATCAACTCGCATCTTGACATTTAAACTTTGTACAAGTATAATTACAATTAAAGCAATGGGACATATTCCCAAAGGAGACATGAATGTCTAAGAACATTAAAGTTACCAAAGAATCGAATACAGGGCTCAATAAAGAATTCTACGATCCTTCCAGAGGAAAGTC (double strand) [lexA2up]”, the binding result is recorded as “binds”.
